Results on 3 molecules are retold here after patent US10689423B2, “CTLA4-binding protein peptide-linker masks” (City of Hope, priority 2015, dated 2020).

The subject of one data set is CTLA-4. In words: Size-exclusion chromatography analysis of CTLA-4 binding to mLcn2-Fc constructs.
The test system of data set [1] is tumor-infiltrating lymphocytes (TILs) in B16 tumor tissues. In words: In vivo detection of mLcn2 variants in B16 tumor tissues (IHC). Conditions: i.v. 100 μg, melanoma-bearing mice, tumor samples 72 hr post-dose; listed as unmasked (MMP9-pretreated) mLcn2. Here is the method:
FIG. 4: In vivo detection of mLcn2 variants (CTLA-4 binding protein variants) in B16 tumor tissues.
(§1) FIG. 9: Biodistribution of mLcn2-Fc constructs in vivo. (A-C) Naïve mice were injected i.v. with 100 μg of indicated mLcn2-Fc construct and tissue samples were collected 48 hr. post-dose. Cryosections were stained for CD4 or CD8 (medium gray) and human IgG (light gray) from the thymus (A), spleen (B), and pituitary gland (C, IgG only). (D) Melanoma-bearing mice were injected as above and tumor samples were collected 72 hr. post-dose. 4′,6-diamidino-2-phenylindole (DAPI) nuclear staining shown in dark gray.
FIG. 17: Melanoma-bearing mice were injected i.v. with 100 μg of indicated mLcn2-Fc construct and tumor samples were collected 72 hr. post-dose. Cryosections were stained for CD4 or CD8 (medium gray) and human IgG (light gray). […] 4′,6-diamidino-2-phenylindole (DAPI) nuclear staining shown in dark gray.
(§2) In these experiments constructs were injected i.v. into C57/B16 mice bearing B16 melanomas. Three days after injection, tumor and tissue samples were collected and doublestained using antibodies recognizing either CD4 or CD8 and mLcn2 (e.g. human IgG-Fc). Membranes of both intratumoral CD4+ and CD8+ T cells were decorated with mLcn2 which was not detected on other cell types.

The subject of data set [2] is human CTLA4-Fc on Tni insect cells. As to the kind of experiment: Flow cytometry of Tni insect cells transiently expressing human CTLA4-Fc. The class given is cell-based. The settings on record: Alexa Fluor-647 conjugated variants. From the text: FIG. 10C: Flow cytometry analysis of Tni insect cells induced to transiently express human CTLA4-Fc. Cells were stained with Alexa Fluor-647 conjugated mLcn2-Fc variants and gated for Forward scatter/Side scatter, DAPI^−, singlet size (pulse width), and APC. Uninfected cells stained with mLcn2-Fc are shown in grey as a negative control.
On the technique in general: Flow cytometry measures light scatter and fluorescence of single cells or particles in a stream.

Another data set has as its system pituicytes. As to the kind of experiment: In vivo binding of mLcn2 variants to cells within the pituitary gland. The settings on record: naïve mice, i.v. 100 μg, 48 hr post-dose, human IgG staining. As for the experimental part:
FIG. 5: Binding of CTLA-4 antagonist mLcn2 variants to cells within the pituitary gland.
as §1
FIG. 18: Naïve mice were injected i.v. with 100 μg of indicated mLcn2-Fc construct and tissue samples were collected 48 hr. post-dose. Cryosections were stained for human IgG (light gray).
as §2

Data set [3] concerns CD4/CD8 negative cells in the spleen. In words: In vivo binding of mLcn2 constructs in the spleen. Also on record: species or system mice. The settings on record: not shown; potentially due to FcR binding. Here is the method:
as §1
FIG. 16: Naïve mice were injected i.v. with 100 μg of indicated mtLCN2-Fc construct and tissue samples were collected 48 hr. post-dose. Cryosections were stained for CD4 or CD8 (medium gray) and human IgG (light gray) from the spleen.
as §2

Data set [4] deals with murine, primate and human CTLA-4. As to the kind of experiment: CTLA-4 species cross-reactivity of mLcn2. The class given is binding.
Another data set deals with CTLA-4-Fc. As to the kind of experiment: SPR kinetics of monomeric mLCN2 and dimeric mLCN2-Fc on immobilized CTLA-4-Fc. The settings on record: dimeric CTLA-4-Fc immobilized at medium density on CM5 chip. It counts as binding. As for the experimental part: FIG. 10A: SPR analysis. Dimeric CTLA-4-Fc was immobilized at medium density to a CM5 chip. A range of 3-1000 nM monomeric mLCN2 (top) and 3-300 nM dimeric mLCN2-Fc (bottom) analytes were used for kinetics analyses. […] Concentration of analytes is 1000; 300; 30; and 3 nM.
CTLA-4-Fc, sequence (P16410 36-161 limits assumed): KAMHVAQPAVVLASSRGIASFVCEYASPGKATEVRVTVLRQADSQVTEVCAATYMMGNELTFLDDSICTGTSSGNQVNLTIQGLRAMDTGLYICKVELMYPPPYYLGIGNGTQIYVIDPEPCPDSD
On the technique in general: SPR reads the build-up and loss of mass on a sensor chip optically.

human CTLA4-Fc on Tni insect cells, sequence (P16410 36-161 limits assumed): as above
CTLA-4, sequence (P16410 36-161 limits assumed): as above

B1: Unmasked mLcn2-Fc: masked mLcn2-Fc treated with MMP9, mask released (protein)
chain: QDSTSDLIPAPPLSKVPLQQNFQDNQFHGKWYVVGLAGNRILRDDQHPMNMYATIYELKEDKSYNVTSVISSHKKCEYTIATFVPGSQPGEFTLGNIKSYGDKTSYLVRVVSTDYNQYAVVFFKLAEDNAEFFAITIYGRTKELASELKENFIRFSKSLGLPENHIVFPVPIDQCIDG
modifications: left off: small tags and cut ends; a dimerising Fc or GST
notes: masked mLcn2-Fc treated with MMP9, mask released
For B1, the “CTLA-4 binding by SEC” value in the data set on CTLA-4 (FIG. 3B) is on record as “binding of CTLA-4 only to unmasked mLcn2-Fc constructs”. Further, the “SEC elution volume of construct incubated with CTLA-4” value in the data set with CTLA-4 (Superdex 200, apo CTLA-4 13.0 mL, apo constructs ~12.7 mL) came out at 11.3 mL. Also, the “staining of CD4 or CD8 TILs in tumor” value in data set [1] is reported as “membrane staining of tumor-infiltrating lymphocytes (TILs)”. Further, the “binding to CTLA4-Fc expressing Tni cells” value in data set [2] is on record as “showed binding to cells”. The “binding to pituitary gland cells” value in the data set with pituicytes was “bound equally well to pituicytes”. Also, the “binding in the spleen” value in data set [3] was “bound to CD4/CD8 negative cells in the spleen”.

B2: mLCN2: modified lipocalin2 used as a CTLA-4 antagonist, SEQ ID NO:34 (protein, listed as Homo sapiens)
chain: QDSTSDLIPAPPLSKVPLQQNFQDNQFHGKWYVVGLAGNRILRDDQHPMNMYATIYELKEDKSYNVTSVISSHKKCEYTIATFVPGSQPGEFTLGNIKSYGDKTSYLVRVVSTDYNQYAVVFFKLAEDNAEFFAITIYGRTKELASELKENFIRFSKSLGLPENHIVFPVPIDQCIDG
Turning to B2, the “binding to pituitary gland cells” value with pituicytes is on record as “reactivity with non-immune cells in the pituitary glands”. Besides, the “CTLA-4 binding across species” value in data set [4] is “binds to murine, primate and human CTLA-4”. In addition, in the data set on CTLA-4-Fc, the ka is on record as 3.6 E4 M^−1 s^−1 and the kd is given as 2.0 E-4 s^−1.

B3: mLcn2-Fc: mLcn2 fused to IgG1 Fc without a mask fused to the N-terminus (positive control) (protein)
chain: QDSTSDLIPAPPLSKVPLQQNFQDNQFHGKWYVVGLAGNRILRDDQHPMNMYATIYELKEDKSYNVTSVISSHKKCEYTIATFVPGSQPGEFTLGNIKSYGDKTSYLVRVVSTDYNQYAVVFFKLAEDNAEFFAITIYGRTKELASELKENFIRFSKSLGLPENHIVFPVPIDQCIDG
modifications: left off: a dimerising Fc or GST
Regarding B3, the “binding to CTLA4-Fc expressing Tni cells” value in data set [2] is given as “showed binding to cells”. Moreover, the “binding to pituitary gland cells” value in the data set on pituicytes is on record as “bound equally well to pituicytes”. Further, in the data set on CTLA-4-Fc, the ka is reported as 1.0 E4 M^−1 s^−1 and the kd entry is reported as “could not be determined as it was beyond the limitations of the instrument”.
